Measured values as given in patent publication US20260042862A1 (AGENCY FOR SCIENCE TECHNOLOGY AND RESEARCH, published 2026).

B1: anti-GPC-3 IgG1 clone 5C4 (antibody, V domains shown)
VH: QVQLQESGGGLVKPGGSLRLSCAASGFTFSSYSMNWVRQAPGKGLEWVAVISYDGSNKYYADSVKGRFTISRDNSKNTLYLQMNSLRTEDTAVYYCARGAGPFTGFNWFDPWGQGTL
VL: EIVLTQSPATLSVSPGERATLSCRASQSVDSYLAWYQQKPGQAPRLLIYSASTRATGIPARFSGTGSGTEFTLTISSLQSEDFAVYYCQQYKRWPTWTFGLGTR
notes: Tested as IgG1; also called monoclonal antibody 5C4
B2: anti-GPC-3 IgG1 clone 1F1 (antibody, V domains shown)
VH: QVQLVQSGAEVKKPGASVKVSCKASGYTFTSYGISWVRQAPGQRLEWMGWINAGNGNTKYSQKFQGRVTITRDTSASTAYMELSSLRSEDTAVYYCATVVYWGQGTL
VL: EIVLTQSPLSLPVTPGEPASISCRSSQSLLHSNGYNYLDWYLQKPGQSPQILIYLGSHRASGVPDRFSGSASGTDFTLKISRVEAEDVGVYYCMQALQTPLTFGGGTK
notes: Tested as IgG1; also called monoclonal antibody 1F1
B3: anti-GPC-3 bi-specific T cell-engaging antibody clone 1C4 (bispecific antibody)
VH: QVQLVQSGGGLVKPGRSLRLSCTASGFTFGDYAMHWVRQAPGKGLEWVAVISYDGSNKYYADSVKGRFTISRDNSKNTLYLQMNSLRAEDTAVYYCARDYGDYYRPYGMDVWGQGTT
VL: DIQMTQSPSTLSASVGDRVTITCRASQSISKWLAWYQHKPGKAPKVLIYKASTLQSGVPSRFSGSGSGTEFTLTISSLQPEDFATYYCQQLNSYPLTFGGGTK
scFv: DVQLVQSGAEVKKPGASVKVSCKASGYTFTRYTMHWVRQAPGQGLEWIGYINPSRGYTNYADSVKGRFTITTDKSTSTAYMELSSLRSEDTATYYCARYYDDHYCLDYWGQGTTVTVSSGEGTSTGSGGSGGSGGADDIVLTQSPATLSLSPGERATLSCRASQSVSYMNWYQQKPGKAPKRWIYDTSKVASGVPARFSGSGSGTDYSLTINSLEAEDAATYYCQQWSSNPLTFGGGTKVEIK
notes: The Fab region of one arm of the IgG is replaced by the anti-CD3 scFv; knob-in-hole and LALA mutations in the Fc; also called 1C4 bi-specific
B4: anti-GPC-3 bi-specific T cell-engaging antibody clone 5C4 (bispecific antibody)
VH: B1 VH
VL: B1 VL
scFv: B3 scFv
notes: The Fab region of one arm of the IgG is replaced by the anti-CD3 scFv; knob-in-hole and LALA mutations in the Fc; also called 5C4 bi-specific
B5: anti-GPC-3 bi-specific T cell-engaging antibody clone 1D2 (bispecific antibody)
VH: EVQLVQSGAEVKKPGSSVKVSCKASGGTFSSYAISWVRQAPGQGLEWMGGIIPIFGTANYAQKFQGRVTITADKSTSTAYMELSSLRSEDTAVYYCAREWQQQLVPLGYMDVWGKGTT
VL: ETTLTQSPGTLSLSPGERATLSCRASHSVSSNFLAWYQQKPGQAPRLLIYAASSRTTGVPDRFSGSGSGTDFTLTISRLEPEDSAVYYCQQYGYSPLYTFGQGTK
scFv: B3 scFv
notes: The Fab region of one arm of the IgG is replaced by the anti-CD3 scFv; knob-in-hole and LALA mutations in the Fc; also called 1D2 bi-specific
B6: anti-GPC-3 bi-specific T cell-engaging antibody clone 4H1 (bispecific antibody)
VH: EVQLVQSGGGVVQPGRSLRLSCAASGFTFSSYAMHWVRQAPGKGLEWVAVISYDGSNKYYADSVKGRFTISRDNSKNTLYLQMNSLRAEDTAVYYCARAPGLEDYWGQGTL
VL: DIQMTQSPSSLSASVGDRVTITCRASQSISSYLNWYQQKPGTAPKLLIYAASSSLQSGVPSRFSGSGSGTDFALTISSLQPEDFATYYCLQDYNYPLTFGGGTK
scFv: B3 scFv
notes: The Fab region of one arm of the IgG is replaced by the anti-CD3 scFv; knob-in-hole and LALA mutations in the Fc; also called 4H1 bi-specific
B7: anti-GPC-3 bi-specific T cell-engaging antibody clone 2B5 (bispecific antibody)
VH: QVQLQESGGGVVQPGRSLRLSCAASGFTFSSYAMHWVRQAPGKGLEWVAVISYDGSNKYYADSVKGRFTISRDNSKNTLYLQMNSLRAEDTAVYYCAKEGTYYYDSSGYWDYYYGMDVWGQGTT
VL: DVVMTQSPLSLPVTPGEPASISCRSSQSLLDSDGYNFLDWYVQKPGQSPQRLIYLGSIRASGVPDRFSGSGSGTDFTLKISRVEADDVGVYYCMQALQTPWTFGQGTK
scFv: B3 scFv
notes: The Fab region of one arm of the IgG is replaced by the anti-CD3 scFv; knob-in-hole and LALA mutations in the Fc; also called 2B5 bi-specific
B8: anti-GPC-3 IgG1 clone 1D8 (antibody, V domains shown)
VH: QVQLVQSGAEVKKPGASVKVSCKASGYTFTSYGISWVRQAPGQGLEWMGWISAYNGNTNYAQKLQGRVTMTTDTSTSTAYMELRSLRSDDTAVYYCARDGGLIAAAFGYYYYGMDVWGQGTT
VL: EIVLTQSPGTLSLSPGERATLSCRASQSVSSYLAWYQQKPGQAPRLLIYGASSRATGIPDRFSGSGSGTDFTLTISRLEPEDFAVYYCQQYERPPTFGGGTK
notes: Tested as IgG1; also called monoclonal antibody 1D8
B9: humanized GC33 IgG1 (antibody, V domains shown)
VH: QVQLVESGAEVKKPGASVKVSCKASGYTFTDYEMHWVRQAPGQGLEWMGALDPKTGDTAYSQKFKGRVTITADESTSTAYMELSSLRSEDTAVYYCARFYSYTYWGQGTLVTVSS
VL: DVVMTQSPLSLPVTPGEPASISCRSSQSLVHSNGNTYLHWYLQKPGQSPQLLIYKVSNRFSGVPDRFSGSGSGTDFTLKISRVEAEDVGVYYCSQNTHVPPTFGQGTKLEIK
B10: anti-GPC-3 IgG1 clone 1H1 (antibody, V domains shown)
VH: QVQLQESGAGLLRPSETLSLTCAVYGGSFSGYYWSWIRQPPGKGLEWLGEISHSGSTNYNPSLKSRVTISVDTSKNQFSLKLSSVTAADAAVYYCARWVWSGYYNGEGYFDLWGRGTL
VL: ETTLTQSPGTLSLSPGERATLSCRASQSVSSSYLAWYQQKPGQAPRLLIYGASSRATGIPDRFSGRGSGTDFTLTITRLEPEDFAVYYCQYYGSSPRTFGQGTK
notes: Tested as IgG1; also called monoclonal antibody 1H1

How the values were obtained:
[1] = target: T1, human GPC-3 on the surface of HepG2 and Hep3B cells (human, UniProt P51654 25-554); assay: flow cytometry on HepG2 (GPC-3 High) cells, MFI against antibody (pM)
T1 construct: whole, on cells; Endogenous GPC-3 of human hepatoma cell lines; also called GPC-3 expressing HepG2 cells; GPC-3^High HepG2
Experimental: (§1) The ability of anti-GPC-3 antibodies to specifically recognize and bind GPC-3 on the surface of cells was measured using HepG2 (GPC-3^High), Hep3B (GPC-3^Medium) and SK-Hep1 (GPC-3^Negative) cells.
(§2) Briefly, HepG2 (GPC-3^High), Hep3B (GPC-3^Medium) and SK-Hep1 (GPC-3^Negative) cells were seeded in cell suspension at 50000 per well in 96-well round-bottom plate before incubation with different concentrations of anti-GPC-3 antibodies. Binding was measured by flow cytometry using a secondary labelled antibody.

[2] = target: T1, human GPC-3 on the surface of HepG2 and …; assay: flow cytometry on Hep3B (GPC-3 Medium) cells, MFI against antibody (pM)
Experimental: as §1, §2

[3] = target: T2, recombinant human GPC-3 protein (human, UniProt P51654 25-559, limits assumed); assay: binding ELISA with biotin-hGPC-3, EC50 calculated from the curves of FIG. 1A to 1C
T2 construct: also called glypican-3; recombinant GPC-3 protein

[4] = target: T2, recombinant human GPC-3 protein; assay: SPR, Biacore T200
Experimental: Affinity of 24 anti-GPC-3 IgG₁ antibodies was measured via Surface Plasmon Resonance (SPR) analysis using Biacore™ T200 system and shown in Table E3 (below).

[5] = target: T3, human CD3 on human T cells (human, UniProt P07766 23-207); assay: flow cytometry on human T cells (CD3 Positive), % positive cells
T3 construct: whole, on cells; CD3 is a complex of several chains on T cells; also called CD3^Positive human T cells
Experimental: (§3) The ability of these anti-GPC-3 bi-specific T cell-engaging antibodies to specifically recognize and bind to both GPC-3 and human CD3 molecules on cell surface was measured using HepG2 (GPC-3^Positive), SK-Hep1 (GPC-3^Negative), and human T cells (CD3^Positive) cells.
(§4) Briefly, HepG2 (GPC-3^Positive), SK-Hep1 (GPC-3^Negative) and human T cells (CD3^Positive) were seeded in cell suspension at 100000 per well in 96-well round-bottom plate prior to incubation with different concentrations of anti-GPC-3 bi-specific T cell-engaging antibodies. Binding was measured by flow cytometry using a secondary labelled antibody. In this assay, all 5 anti-GPC-3 bi-specific T-cell engaging antibodies bound strongly to the GPC-3 expressing cell HepG2 (FIG. 8B) as well as human T cells expressing CD3 (FIG. 8D).

[6] = target: T1, human GPC-3 on the surface of HepG2 and …; assay: flow cytometry on HepG2 (GPC-3 Positive) cells, % positive cells
Experimental: as §3, §4

[7] = target: T1, human GPC-3 on the surface of HepG2 and …; assay: flow cytometry on HepG2 (GPC-3 Positive) cells, mean-APC
Experimental: as §3, §4

[8] = target: T4, recombinant mouse GPC-3 protein (mouse, UniProt Q8CFZ4 25-558, limits assumed, biotinylated (sites not given)); assay: cross-reactivity binding ELISA with biotinylated recombinant GPC-3, absorbance 450nm-570nm
T4 construct: Biotinylated for the cross-reactivity ELISA; also called mouse homolog of GPC-3 protein
T4 sequence (Q8CFZ4 25-558 limits assumed): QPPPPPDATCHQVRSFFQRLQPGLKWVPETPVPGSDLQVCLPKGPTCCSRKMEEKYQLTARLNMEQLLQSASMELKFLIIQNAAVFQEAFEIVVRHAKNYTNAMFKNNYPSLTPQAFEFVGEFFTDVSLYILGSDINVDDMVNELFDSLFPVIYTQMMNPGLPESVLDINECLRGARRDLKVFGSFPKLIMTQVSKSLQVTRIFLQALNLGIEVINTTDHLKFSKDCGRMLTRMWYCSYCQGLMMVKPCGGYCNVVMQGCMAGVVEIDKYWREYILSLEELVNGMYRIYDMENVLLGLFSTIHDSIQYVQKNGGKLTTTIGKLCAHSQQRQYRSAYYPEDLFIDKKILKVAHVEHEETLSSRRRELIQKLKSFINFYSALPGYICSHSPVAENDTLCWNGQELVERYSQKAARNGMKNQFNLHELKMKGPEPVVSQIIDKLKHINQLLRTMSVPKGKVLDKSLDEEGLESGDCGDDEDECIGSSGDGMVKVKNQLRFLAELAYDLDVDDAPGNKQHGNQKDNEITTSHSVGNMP

[9] = target: T5, mouse GPC-3 on the surface of transduced cells (Hepa1-6-mGPC-3, MC38-mGPC-3) (mouse, UniProt Q8CFZ4 25-553); assay: flow cytometry histograms, 20 nM antibody, Hepa1-6-mGPC-3 against parental Hepa1-6 cells
T5 construct: whole, on cells
T5 sequence (Q8CFZ4 25-553 limits assumed): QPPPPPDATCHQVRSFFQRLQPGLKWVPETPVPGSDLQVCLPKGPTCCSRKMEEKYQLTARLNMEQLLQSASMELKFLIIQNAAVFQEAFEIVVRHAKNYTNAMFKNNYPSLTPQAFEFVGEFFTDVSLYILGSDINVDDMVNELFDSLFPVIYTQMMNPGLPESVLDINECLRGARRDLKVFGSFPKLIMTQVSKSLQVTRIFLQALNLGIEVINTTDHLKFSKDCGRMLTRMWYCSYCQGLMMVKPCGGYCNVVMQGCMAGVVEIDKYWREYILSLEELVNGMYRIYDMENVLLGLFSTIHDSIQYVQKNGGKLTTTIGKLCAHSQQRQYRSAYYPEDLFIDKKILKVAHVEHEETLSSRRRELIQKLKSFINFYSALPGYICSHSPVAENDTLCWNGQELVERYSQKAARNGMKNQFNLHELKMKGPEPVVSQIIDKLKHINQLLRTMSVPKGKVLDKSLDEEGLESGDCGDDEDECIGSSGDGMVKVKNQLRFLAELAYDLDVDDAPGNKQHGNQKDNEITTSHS

[10] = target: T2, recombinant human GPC-3 protein; assay: binding ELISA with biotin-hGPC-3, EC50 calculated from the curves of FIG. 1A to 1C; footnote: * Average value from 3 batches
[11] = target: T1, human GPC-3 on the surface of HepG2 and …; assay: flow cytometry on HepG2 (GPC-3 High) cells, MFI against antibody (pM); remark: listed apart in the source
[12] = target: T2, recombinant human GPC-3 protein; assay: binding ELISA, absorbance 450nm-570nm against Biotin-hGPC-3 (nM), batch of FIG. 1B
[13] = target: T2, recombinant human GPC-3 protein; assay: binding ELISA, absorbance 450nm-570nm against Biotin-hGPC-3 (nM), batch of FIG. 1C
[14] = target: T2, recombinant human GPC-3 protein; assay: binding ELISA, absorbance 450nm-570nm against Biotin-hGPC-3 (nM), batch of FIG. 1A

Binder	EC50 [3] [nM]	Kd [4] [nM]	koff [4] [s⁻¹]	kon [4] [M⁻¹ s⁻¹]	EC50 (read off the curve) [5] [nM]	EC50 (read off the curve) [6] [nM]	further results
B1	0.348	9.02	0.00161	179000	–	–	EC50 (read off the curve) [1]: ~0.1 nM; EC50 (read off the curve) [2]: ~0.04 nM
B2	10.6	13.8	0.00552	399000	–	–	–
B3	–	–	–	–	~200	~10	EC50 (read off the curve) [7]: ~700 nM
B4	–	–	–	–	~100	~20	EC50 (read off the curve) [7]: ~800 nM
B5	–	–	–	–	~300	~70	–
B6	–	–	–	–	~300	~100	–
B7	–	–	–	–	~400	~100	–
B8	9.01	13.7	0.0053	388000	–	–	binding result [8]: no binding; binding result [9]: no binding (tested: 20 nM)
B9	–	–	–	–	–	–	EC50 [10]: 0.803 nM; EC50 (read off the curve) [1]: ~0.7 nM; EC50 (read off the curve) [11]: ~0.8 nM; EC50 (read off the curve) [12]: ~0.9 nM; EC50 (read off the curve) [13]: ~1 nM; EC50 (read off the curve) [14]: ~0.4 nM
B10	5.42	33.9	0.00596	176000	–	–	–
